According to patent US20230295226A1 (FLORIDA ATLANTIC UNIVERSITY BOARD OF TRUSTEES, published 2023):
Bridges are numbered along the chain shown (N, C = ends). Where no end group is shown, it is not given here. [ ]: non-standard residue; d: D form.

Tests used:
asialofetuin [1] = biological target: T1, asialofetuin (UniProt P12763 19-359, limits assumed, glycoprotein; desialylated glycans, described as L-fucose bearing); assay: ITC
T1 construct: also called L-fucose bearing asialofetuin; model glycoprotein
T1 sequence (looked up): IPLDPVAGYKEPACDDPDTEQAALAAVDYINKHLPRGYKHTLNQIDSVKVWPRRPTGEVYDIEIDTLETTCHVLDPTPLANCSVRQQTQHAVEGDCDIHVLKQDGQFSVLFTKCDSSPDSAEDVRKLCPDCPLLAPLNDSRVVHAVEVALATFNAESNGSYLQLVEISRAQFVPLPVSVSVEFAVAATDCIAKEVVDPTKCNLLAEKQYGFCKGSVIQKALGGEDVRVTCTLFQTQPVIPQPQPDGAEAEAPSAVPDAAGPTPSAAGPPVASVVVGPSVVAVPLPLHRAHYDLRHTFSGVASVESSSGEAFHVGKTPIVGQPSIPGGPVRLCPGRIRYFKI

asialofetuin [2] = biological target: T1, asialofetuin; assay: ITC, as cited in the text from Table 1; conflicts with Table 1, which prints 6.4 × 10^4 nM for OL and 4.2 × 10^4 nM for DADLE-OL
[3] = biological target: T2, delta opioid receptor (DOR); assay: protein binding radioassay
T2 construct: the library screen elsewhere used human clones in CHO cells

mu opioid receptor (MOR) = biological target: T3, mu opioid receptor (MOR); assay: protein binding radioassay
T3 construct: see m11 for the human receptor of the library screen

[4] = biological target: T4, kappa opioid receptor (KOR); assay: protein binding radioassay
T4 construct: see m12 for the human receptor of the library screen

B1: Control peptide (scrambled OL sequence) (peptide)
peptide: RVFSLCNATYPYKGACP
modifications: disulfide 6-16
- Kd (asialofetuin [1]): 760 µM

B2: Odorranalectin (OL) (peptide)
peptide: YASPKCFRYPNGVLACT
modifications: disulfide 6-16
notes: Synthetic copy of the natural product; on-resin disulfide formation by I2 oxidation; also called unmodified OL; OL natural product
- Kd (asialofetuin [1]): 64 µM
- Kd (asialofetuin [2]): 42 µM

B3: DADLE-OL II (peptide)
peptide: Y[dA]GF[dL]KCFRYPNGVLACT
modifications: disulfide 7-17
- Kd (asialofetuin [1]): 33 µM
- Kd [3]: 0.275 µM
- Kd (mu opioid receptor (MOR)): 0.123 µM
- Kd [4]: 1.08 µM

B4: DADLE-OL (peptide)
peptide: YASPKCFRY[dA]GF[dL]LACT
modifications: disulfide 6-16
- Kd (asialofetuin [1]): 42 µM
- Kd [3]: 0.064 µM
- Kd (mu opioid receptor (MOR)): 3.54 µM
